This is an account of results in patent publication US20240384250A1, “FIBROBLAST GROWTH FACTOR 23 MODULATING COMPOUNDS” (THE UAB RESEARCH FOUNDATION, priority 2021, published 2024).

Usually Kd stands for the free concentration of one partner at which half of the binding sites on the other are occupied at equilibrium, for simple one-to-one binding. As usually defined, the koff is the first-order rate constant of dissociation. Higher therefore signals fast dissociation. The kon is the rate constant with which the complex forms. Low readings indicate slower complex formation, high ones faster complex formation.

The target of test [1] is Fc-tagged human FGFR1c ectodomain (human) (UniProt P11362). The test is described as follows: plate assay: 100 ng FGF23 coated, 400 ng purified sKL-N694Q or wildtype, then 200 ng Fc-FGFR1c (FIG. 25F).
The target of test [2] is Fc-tagged human FGFR4 ectodomain (human), P22455. The test is described as follows: SPR: Fc-FGFR4 on the chip, FGF23 with sKL or heparin in solution. The conditions noted are these: remark: other sources report otherwise.
The target is the same in test [3]. As to the kind of experiment: SPR: Fc-FGFR4 on the chip, FGF23 with heparin in solution (FIG. 11E). The conditions noted are these: remark: other sources report otherwise. A general note: In SPR one partner is held on a chip, and binding of the other changes the refractive index at the surface.
The target is the same in test [4]. The test is described as follows: SPR (BIAcore T200): Fc-FGFR4 amine-coupled to the chip, FGF23 injected at 1000-63 nM, 25 °C. The conditions noted are these: remark: other sources report otherwise.
For test [5] the target is unchanged. As to the kind of experiment: SPR: Fc-FGFR4 on the chip, FGF23 with sKL (human ectodomain, self-made) in solution (FIG. 11F). The conditions noted are these: remark: other sources report otherwise.

Chain of Fc-tagged human FGFR4 ectodomain (human), P22455 (P22455 22-369): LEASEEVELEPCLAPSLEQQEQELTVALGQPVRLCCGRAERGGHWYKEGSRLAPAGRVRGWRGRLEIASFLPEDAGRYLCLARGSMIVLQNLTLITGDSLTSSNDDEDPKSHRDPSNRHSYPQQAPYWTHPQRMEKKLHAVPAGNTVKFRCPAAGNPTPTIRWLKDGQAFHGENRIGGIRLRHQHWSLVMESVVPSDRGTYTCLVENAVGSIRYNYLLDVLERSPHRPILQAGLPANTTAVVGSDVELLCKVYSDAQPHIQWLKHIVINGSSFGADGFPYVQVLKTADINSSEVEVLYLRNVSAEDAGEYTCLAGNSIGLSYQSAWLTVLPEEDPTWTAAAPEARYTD
Chain of Fc-tagged human FGFR1c ectodomain (human) (P11362 22-376 limits assumed): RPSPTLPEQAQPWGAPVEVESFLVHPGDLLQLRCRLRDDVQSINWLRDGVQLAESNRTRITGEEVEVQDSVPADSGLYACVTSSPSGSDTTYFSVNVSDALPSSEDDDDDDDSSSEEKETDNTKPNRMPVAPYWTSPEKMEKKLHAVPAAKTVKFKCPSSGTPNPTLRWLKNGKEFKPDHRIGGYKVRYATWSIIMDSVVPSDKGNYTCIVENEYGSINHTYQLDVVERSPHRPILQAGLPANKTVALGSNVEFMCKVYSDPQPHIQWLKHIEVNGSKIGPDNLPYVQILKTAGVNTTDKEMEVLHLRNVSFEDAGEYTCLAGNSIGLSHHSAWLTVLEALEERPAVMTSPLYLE

B1: complex of FGF23 and sKL-N694Q (protein, part only; not given: FGF23 and C-terminal FLAG/His tag, not shown: small tags and cut ends)
chain: EPGDGAQTWARFSRPPAPEAAGLFQGTFPDGFLWAVGSAAYQTEGGWQQHGKGASIWDTFTHHPLAPPGDSRNASLPLGAPSPLQPATGDVASDSYNNVFRDTEALRELGVTHYRFSISWARVLPNGSAGVPNREGLRYYRRLLERLRELGVQPVVTLYHWDLPQRLQDAYGGWANRALADHFRDYAELCFRHFGGQVKYWITIDNPYVVAWHGYATGRLAPGIRGSPRLGYLVAHNLLLAHAKVWHLYNTSFRPTQGGQVSIALSSHWINPRRMTDHSIKECQKSLDFVLGWFAKPVFIDGDYPESMKNNLSSILPDFTESEKKFIKGTADFFALCFGPTLSFQLLDPHMKFRQLESPNLRQLLSWIDLEFNHPQIFIVENGWFVSGTTKRDDAKYMYYLKKFIMETLKAIKLDGVDVIGYTAWSLMDGFEWHRGYSIRRGLFYVDFLSQDKMLLPKSSALFYQKLIEKNGFPPLPENQPLEGTFPCDFAWGVVDNYIQVDTTLSQFTDLNVYLWDVHHSKRLIKVDGVVTKKRKSYCVDFAAIQPQIALLQEMHVTHFRFSLDWALILPLGNQSQVNHTILQYYRCMASELVRVNITPVVALWQPMAPNQGLPRLLARQGAWENPYTALAFAEYARLCFQELGHHVKLWITMNEPYTRQMTYSAGHNLLKAHALAWHVYNEKFRHAQNGKISIALQADWIEPACPFSQKDKEVAERVLEFDIGWLAEPIFGSGDYPWVMRDWLNQRNNFLLPYFTEDEKKLIQGTFDFLALSHYTTILVDSEKEDPIKYNDYLEVQEMTDITWLNSPSQVAVVPWGLRKVLNWLKFKYGDLPMYIISNGIDDGLHAEDDQLRVYYMQNYINEALKAHILDGINLCGYFAYSFNDRTAPRFGLYRYAADQFEPKASMKHYRKIIDSNGFPGPETLERFCPEEFTVCTECSFFHTRKS
As to B1, in test [1], the fold increase in formation of the trimeric FGF23/FGFR1c/sKL complex against wildtype sKL was 3 fold.

B2: human FGF23, Q9GZV9 25-251 (ligand, UniProt Q9GZV9 25-251, looked up)
chain: YPNASPLLGSSWGGLIHLYTATARNSYHLQIHKNGHVDGAPHQTIYSALMIRSEDAGFVVITGVMSRRYLCMDFRGNIFGSHYFDPENCRFQHQTLENGYDVYHSPQYHFLVSLGRAKRAFLPGMNPPPYSQFLSRRNEIPLIHFNTPIPRRHTRSAEDDSERDPLNVLKPRARMTPAPASCSQELPSAEDNSPMASDPLGVVRGGRVNTHAGGTGPEGCRPFAKFI
On to B2, for which the fold, effect of sKL on FGFR4 affinity for FGF23 against that of heparin in test [2] lay within 4 to 5 fold. The fold increase in binding affinity in the presence of heparin in test [3] turned out to be 3 fold. In test [4], this molecule displayed a dissociation constant Kd of 320 nM, a koff of 0.04 s⁻¹ and a kon of 120000 M⁻¹ s⁻¹. Further, in test [5], the fold increase in binding affinity in the presence of sKL came to 13 fold.
